Here are results for three molecules from PMC9020777.

Holding throughout (experiment): FRET or BRET
Common to all, as to conditions: remark: other sources report otherwise
For orientation: In BRET a luciferase serves as donor, and the signal depends on an acceptor being close.

Test [1] concerns the target mCerulean3-BCL-2 (human), P10415.
For test [2], the target named is mCerulean3-MCL-1 (human), Q07820.
Test [3] deals with mCerulean3-BCL-XL (human), Q07817.
The target of test [4] is mCerulean3-BCL-2 (^CBCL-2) (human), P10415.
Sequence of mCerulean3-BCL-2 (^CBCL-2) (human), P10415 (P10415 whole entry): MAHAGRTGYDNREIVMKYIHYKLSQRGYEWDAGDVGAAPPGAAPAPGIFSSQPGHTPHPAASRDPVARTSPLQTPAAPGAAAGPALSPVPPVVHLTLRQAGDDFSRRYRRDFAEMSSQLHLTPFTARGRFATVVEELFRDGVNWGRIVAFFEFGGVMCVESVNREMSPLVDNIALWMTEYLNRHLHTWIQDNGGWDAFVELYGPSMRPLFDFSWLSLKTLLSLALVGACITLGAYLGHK

Sequence of mCerulean3-BCL-2 (human), P10415 (P10415 whole entry): as above
Sequence of mCerulean3-BCL-XL (human), Q07817 (Q07817 whole entry): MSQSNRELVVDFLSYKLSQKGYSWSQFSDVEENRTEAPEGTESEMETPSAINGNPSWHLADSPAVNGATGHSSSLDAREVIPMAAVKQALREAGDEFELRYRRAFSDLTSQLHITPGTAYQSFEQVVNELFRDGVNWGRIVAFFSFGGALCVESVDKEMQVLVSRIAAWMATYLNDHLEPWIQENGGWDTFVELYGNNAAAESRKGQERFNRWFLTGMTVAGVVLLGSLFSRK
Sequence of mCerulean3-MCL-1 (human), Q07820 (Q07820 whole entry): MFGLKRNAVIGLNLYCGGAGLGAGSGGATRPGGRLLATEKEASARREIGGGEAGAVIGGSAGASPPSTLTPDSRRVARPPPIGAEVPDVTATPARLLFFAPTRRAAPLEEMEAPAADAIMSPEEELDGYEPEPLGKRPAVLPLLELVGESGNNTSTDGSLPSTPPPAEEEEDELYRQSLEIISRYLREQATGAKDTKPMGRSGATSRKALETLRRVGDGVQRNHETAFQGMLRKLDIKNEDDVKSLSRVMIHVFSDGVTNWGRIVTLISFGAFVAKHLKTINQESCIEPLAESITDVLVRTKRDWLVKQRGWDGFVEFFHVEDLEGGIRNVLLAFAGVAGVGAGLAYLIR

B1: Venus-BIK, Q13323 1-160 (natural protein)
chain: MSEVRPLSRDILMETLLYEQLLEPPTMEVLGMTDSEEDLDPMEDFDSLECMEGSDALALRLACIGDEMDVSLRAPRLAQLSEVAMHSLGLAFIYDQTEDIRDVLRSFMDGFTTLKENIMRFWRSPNPGSWVSCEQVLLALLLLLALLLPLLSGGLHLLLK
The term Kd denotes the constant that tells how readily two partners part at equilibrium. Low values mean higher affinity, high ones lower affinity. B1: the Kd turned out to be 3 µM in test [1] and 6 µM in test [2].

B2: Venus-BAD, Q92934 1-168 (natural protein)
chain: MFQIPEFEPSEQEDSSSAERGLGPSPAGDGPSGSGKHHRQAPGLLWDASHQQEQPTSSSHHGGAGAVEIRSRHSSYPAGTEDDEGMGEEPSPFRGRSRSAPPNLWAAQRYGRELRRMSDEFVDSFKKGLPRPKSAGTATQMRQSSSWTRVFQSWWDRNLGRGSSAPSQ
For the molecule B2, the Kd came to 4 µM in test [1] and 7 µM in test [3].

B3: Venus-NOXA (^VNOXA), Q13794 1-54 (natural protein)
chain: MPGKKARKNAQPSPARAPAELEVECATQLRRFGDKLNFRQKLLNLISKLFCSGT
As for B3, in test [4], the dissociation constant Kd is 8 µM.
